Starred links: 1 amine or outer side, 2 acyl side, 3 side chain; linkers in the order of their positions; H or OH if unused. Non-standard residues stand in square brackets, D forms with d. Residues, ends and D or L forms follow the SMILES beside them. Groups on a side chain read outwards from the residue. No end group written: not given here. *: point of attachment. C18 diacid = O=C(O)CCCCCCCCCCCCCCCCC(=O)*; C17 diacid = O=C(O)CCCCCCCCCCCCCCCC(=O)*; γGlu = O=C(O)[C@H](CCC(=O)[*:2])N[*:1]; NMeY = CN[C@@H](Cc1ccc(O)cc1)C(=O)O; AEEA = NCCOCCOCC(=O)O; Aib = CC(C)(N)C(=O)O
Key:
[1] = Solubility in phosphate buffer pH 7.4
Procedure, shortened: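 Solubility at pH 7.4 determined by stepwise addition of 200 mM phosphate buffer in 100 μL increments to 3 mg peptide, mixing briefly each time, until no insoluble material remained, then measured by liquid chromatography.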

[2] = Serum half-life and percentage remaining at 48 hours; assay type: in vitro ADME; details: both sexes, pH 7.4, human plasma, 500 nM peptide, 37° C.
Procedure: Human plasma (mixed gender: sodium heparin is used as anti-coagulant; pre-adjusted to pH 7.4—NB alternative species may be used) is spiked with each test peptide (500 nM) and incubated·cn=3) at 37° C. for 48 hours in a 5% CO2 environment. Aliquots are taken at 0. 1, 2, 4, 7, 24 and […] and pH adjusted to pH 3 with 20% formic acid prior to analysis. Appropriate positive control compounds will be incubated in parallel, in addition to a no plasma control, sampled at 0 and 8 hours. All samples will be treated with ice-cold acetonitrile/methanol (4:1 (v/v)) containing internal standard prior to centrifugation at 2000 g and 4° C. for 10 minutes and subjected to LC-MS/MS analysis.
The samples are analyzed by LC-MS/MS using a 6500 (or equivalent) triple quadrupole mass spectrometer (AB Sciex) coupled to an appropriate Liquid Chromatography (LC) system. Protein binding and stability values are determined via peak area ratios using multiple reaction monitoring (MRM) parameters following compound optimisation. Multiple reaction monitoring (MRM) is a highly sensitive method of targeted mass spectrometry (MS) that can be used to selectively detect and quantify peptides based on the screening of specified precursor peptide-to-fragment ion transitions.

[3] = biological target: full-length human GLP-1R with an N-terminal FLAG tag (human, UniProt P43220 24-463); experiment: cell-based or functional assay
[4] = biological target: T1, full-length human GIPR with an N-terminal FLAG tag (human, UniProt P48546 22-466); experiment: cell-based or functional assay
T1 sequence (looked up): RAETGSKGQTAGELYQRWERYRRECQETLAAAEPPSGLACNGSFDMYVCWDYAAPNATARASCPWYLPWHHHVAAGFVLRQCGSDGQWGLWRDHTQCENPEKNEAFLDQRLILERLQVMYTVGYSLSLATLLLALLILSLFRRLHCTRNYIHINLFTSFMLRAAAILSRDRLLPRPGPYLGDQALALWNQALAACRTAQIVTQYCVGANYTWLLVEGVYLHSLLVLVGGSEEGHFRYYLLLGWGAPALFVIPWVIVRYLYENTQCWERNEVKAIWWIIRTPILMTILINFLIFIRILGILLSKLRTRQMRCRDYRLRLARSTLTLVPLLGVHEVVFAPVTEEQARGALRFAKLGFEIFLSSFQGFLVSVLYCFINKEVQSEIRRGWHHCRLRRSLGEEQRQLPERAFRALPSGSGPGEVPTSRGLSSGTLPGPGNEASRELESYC

dog plasma proteins = experiment: plasma protein binding, ultracentrifugation, LC-MS/MS
human plasma proteins = experiment: as above
[5] = biological target: full-length human GLP-1R with an N-terminal FLAG tag, overexpressed on HEK-293T cells (human, UniProt P43220 24-463); experiment: cell-based or functional assay
[6] = biological target: T2, full-length human GIPR with an N-terminal FLAG tag, overexpressed on HEK-293T cells (human, UniProt P48546 22-466); experiment: cell-based or functional assay
T2 sequence (looked up): T1 sequence (looked up)

In the case of CC[C@H](C)[C@H](NC(=O)[C@H](CO)NC(=O)[C@H](Cc1ccc(O)cc1)NC(=O)[C@H](CC(=O)O)NC(=O)[C@H](CO)NC(=O)[C@@H](NC(=O)[C@H](Cc1ccccc1)NC(=O)[C@@H](NC(=O)CNC(=O)[C@H](CCC(=O)O)NC(=O)C(C)(C)NC(=O)[C@H](Cc1ccc(O)cc1)NC)[C@@H](C)O)[C@@H](C)CC)C(=O)N[C@@H](C)C(=O)N[C@@H](CC(C)C)C(=O)N[C@@H](CC(=O)O)C(=O)N[C@@H](CCCNC(=N)N)C(=O)NC(C)(C)C(=O)N[C@@H](Cc1c[nH]cn1)C(=O)N[C@@H](CCC(N)=O)C(=O)NC(C)(C)C(=O)N[C@@H](CC(N)=O)C(=O)N[C@@H](Cc1ccccc1)C(=O)N[C@H](C(=O)N[C@@H](CC(N)=O)C(=O)N[C@@H](Cc1c[nH]c2ccccc12)C(=O)N[C@@H](CC(C)C)C(=O)N[C@@H](CC(C)C)C(=O)N[C@@H](C)C(=O)N[C@@H](CCC(N)=O)C(=O)N[C@@H](CCCCNC(=O)COCCOCCNC(=O)COCCOCCNC(=O)CC[C@H](NC(=O)CCCCCCCCCCCCCCCCC(=O)O)C(=O)O)C(=O)N1CCC[C@H]1C(=O)N[C@@H](CO)C(=O)N[C@@H](CO)C(=O)NCC(=O)N[C@@H](C)C(=O)N1CCC[C@H]1C(=O)N1CCC[C@H]1C(=O)N1CCC[C@H]1C(=O)N[C@@H](CO)C(N)=O)C(C)C [Compound 1] (H-[NMeY][Aib]EGTFISDYSIALDR[Aib]HQ[Aib]NFVNWLLAQK([AEEA-AEEA-γGlu-C18 diacid])PSSGAPPPS-NH2), the solubility ([1]; pH 7.4, aqueous buffer, pH 7.4 Phosphate Buffer - Solubility, 200 mM Phosphate buffer pH 7.4) is reported as ≥ 30 mg/mL, the solubility ([1]; pH 7.4, solubility in phosphate buffer at pH 7.4, 200 mM phosphate buffer pH 7.4) is reported as ≥ 15 mg/mL and the half-life at 500 nM ([2]; read-out: Serum t1/2 (converted)) is reported as > 48 h. For the same molecule, the remaining at 48 h, 500 nM ([2]; plasma (sodium heparin), 48 hr) was 100%.

For [NMeY][Aib]EGTFISDYSI[Aib]LDR[Aib]AQ[Aib]K([AEEA-AEEA-γGlu-γGlu-C17 diacid])FVNWLLAQRPSSGAPPPS-NH2 [Compound No. 13], the “Human GLP1R cAMP EC50, HEK293T” value [3] was 49 nM, the “Human GIPR cAMP EC50, HEK293T” value [4] was 0.0004 nM and the Dog PPB (FUplasma), fraction unbound in plasma (fraction unbound) (dog plasma proteins) was < 0.002. The Human PPB (FUplasma), fraction unbound in plasma (fraction unbound) (human plasma proteins) was < 0.002.

For [NMeY][Aib]EGTFISDYSIALDR[Aib]AQ[Aib]K([AEEA-AEEA-γGlu-γGlu-C18 diacid])FVNWLLAQRG-OH [Compound No. 37], the “Human GLP1R cAMP EC50, HEK293T” value [3] was 44.7 nM, the “Human GIPR cAMP EC50, HEK293T” value [4] was 0.0005 nM and the Dog PPB (FUplasma), fraction unbound in plasma (fraction unbound) (dog plasma proteins) was 0.0012. It also gave a Human PPB (FUplasma), fraction unbound in plasma (fraction unbound) (human plasma proteins) of 0.001.

For [NMeY][Aib]EGTFISDYSIALDR[Aib]AQ[Aib]K([AEEA-AEEA-γGlu-γGlu-C17 diacid])FVNWLLAQRG-OH [Compound No. 36], the “Human GLP1R cAMP EC50, HEK293T” value [3] was 87.1 nM, the “Human GIPR cAMP EC50, HEK293T” value [4] was 0.0007 nM and the Dog PPB (FUplasma), fraction unbound in plasma (fraction unbound) (dog plasma proteins) was 0.0034. For the same molecule, the Human PPB (FUplasma), fraction unbound in plasma (fraction unbound) (human plasma proteins) was < 0.002.

For [NMeY][Aib]EGTFISDYSIALDR[Aib]AQ[Aib]K([AEEA-AEEA-γGlu-γGlu-C18 diacid])FVNWLLAQKG-OH [Compound No. 41], the Dog PPB (FUplasma), fraction unbound in plasma (fraction unbound) (dog plasma proteins) was 0.0007 and the Human PPB (FUplasma), fraction unbound in plasma (fraction unbound) (human plasma proteins) was < 0.002.

In the case of [NMeY][Aib]EGTFISDYSIALDR[Aib]AQ[Aib]K([2OEGgEgE-C17 diacid])FVNWLLAQR-NH2 [Compound No. 8], the “Human GLP1R cAMP EC50, HEK293T” value [3] is reported as 41.4 nM, the “Human GIPR cAMP EC50, HEK293T” value [4] is reported as 0.0003 nM and the Dog PPB (FUplasma), fraction unbound in plasma (fraction unbound) (dog plasma proteins) is reported as 0.0016. The Human PPB (FUplasma), fraction unbound in plasma (fraction unbound) (human plasma proteins) was 0.0009.

With [NMeY][Aib]EGTFISDYSIALDR[Aib]K([AEEA-AEEA-γGlu-γGlu-C18 diacid])Q[Aib]NFVNWLLAQSPSSGAPPPS-NH2 [Compound No. 293] the “Human GLP1R cAMP EC50, HEK293T” value [5] was 129 nM, the “Human GIPR cAMP EC50, HEK293T” value [6] was 0.0004 nM and the Dog PPB (FUplasma), fraction unbound in plasma (fraction unbound) (dog plasma proteins) was < 0.002. For the same molecule, the Human PPB (FUplasma), fraction unbound in plasma (fraction unbound) (human plasma proteins) was < 0.002.

For [NMeY][Aib]EGTFISDYSIALDR[Aib]AQ[Aib]K(2OEGgEgE‑C20 diacid)FVNWLLAQKG-OH [Compound No. 39], the “Human GLP1R cAMP EC50, HEK293T” value [3] was 13.2 nM, the “Human GIPR cAMP EC50, HEK293T” value [4] was 0.0017 nM and the Dog PPB (FUplasma), fraction unbound in plasma (fraction unbound) (dog plasma proteins) was 0.0015. For the same molecule, the Human PPB (FUplasma), fraction unbound in plasma (fraction unbound) (human plasma proteins) was 0.0112.

For [NMeY][Aib]EGTFISDYSIALDR[Aib]HQ[Aib]NFVNWLLAK([AEEA-AEEA-γGlu-γGlu-C18 diacid])R-NH2 [Compound No. 19], the Dog PPB (FUplasma), fraction unbound in plasma (fraction unbound) (dog plasma proteins) was 0.0005 and the Human PPB (FUplasma), fraction unbound in plasma (fraction unbound) (human plasma proteins) was 0.0011.

For [NMeY][Aib]EGTFISDYSI[Aib]LDR[Aib]AQ[Aib]NFVNWLLAQK([AEEA-AEEA-γGlu-γGlu-C17 diacid])PSSGAPPPS-NH2 [Compound No. 16], the “Human GLP1R cAMP EC50, HEK293T” value [3] was 35.1 nM, the “Human GIPR cAMP EC50, HEK293T” value [4] was 0.0004 nM and the Dog PPB (FUplasma), fraction unbound in plasma (fraction unbound) (dog plasma proteins) was < 0.00116. The Human PPB (FUplasma), fraction unbound in plasma (fraction unbound) (human plasma proteins) was < 0.0012.

In the case of [NMeY][Aib]EGTFISDYSI[Aib]LDR[Aib]AQ[Aib]K([2OEGgEgE-C18 diacid])FVNWLLAQRG-OH [Compound No. 72], the “Human GLP1R cAMP EC50, HEK293T” value [3] is reported as 43.2 nM, the “Human GIPR cAMP EC50, HEK293T” value [4] is reported as 0.0005 nM and the Dog PPB (FUplasma), fraction unbound in plasma (fraction unbound) (dog plasma proteins) is reported as 0.0062. For the same molecule, the Human PPB (FUplasma), fraction unbound in plasma (fraction unbound) (human plasma proteins) was 0.0036.

For [NMeY][Aib]EGTFISDYSIALDR[Aib]K([AEEA-AEEA-γGlu-γGlu-C17 diacid])Q[Aib]NFVNWLLAQSPSSGAPPPS-NH2 [Compound No. 11], the “Human GLP1R cAMP EC50, HEK293T” value [3] was 1000 nM, the “Human GIPR cAMP EC50, HEK293T” value [4] was 0.0003 nM and the Dog PPB (FUplasma), fraction unbound in plasma (fraction unbound) (dog plasma proteins) was < 0.0024. For the same molecule, the Human PPB (FUplasma), fraction unbound in plasma (fraction unbound) (human plasma proteins) was 0.0038.

For [NMeY][Aib]EGTFISDYSI[Aib]LDRK([AEEA-AEEA-γGlu-γGlu-C17 diacid])AQ[Aib]NFVNWLLAQRPSSGAPPPS-NH2 [Compound No. 15], the “Human GLP1R cAMP EC50, HEK293T” value [3] was 35.9 nM, the “Human GIPR cAMP EC50, HEK293T” value [4] was 0.0003 nM and the Dog PPB (FUplasma), fraction unbound in plasma (fraction unbound) (dog plasma proteins) was 0.0021. For the same molecule, the Human PPB (FUplasma), fraction unbound in plasma (fraction unbound) (human plasma proteins) was 0.0017.

For [NMeY][Aib]EGTFISDYSI[Aib]LDR[Aib]AQ[Aib]NFVNWLLAQK([AEEA-AEEA-γGlu-γGlu-C18 diacid])PSSGAPPPS-NH2 [Compound No. 27], the “Human GLP1R cAMP EC50, HEK293T” value [3] was 87.1 nM, the “Human GIPR cAMP EC50, HEK293T” value [4] was 0.0004 nM and the Dog PPB (FUplasma), fraction unbound in plasma (fraction unbound) (dog plasma proteins) was < 0.002. For the same molecule, the Human PPB (FUplasma), fraction unbound in plasma (fraction unbound) (human plasma proteins) was 0.0013.

— patent publication US20230143604A1, “QW DOSING OF GIP RECEPTOR AGONIST PEPTIDE COMPOUNDS AND USES THEREOF” (TAKEDA PHARMACEUTICAL COMPANY LIMITED, priority 2020, published 2023)
